# Article PMC11475653
# Conditions: ubiquitination at K45
substance,measurement,value
AMBRA1: K45R,degradation_or_half_life,decreases
